{
  "source": "patent US20050221343A1",
  "about": "(LOS ALAMOS NATIONAL SECURITY, published 2005)",
  "binders": {"B1": {"name": "GFP S11 wild type (peptide)", "peptide": "KRDHMVLLEFVTAAGITGT", "modifications": "also: fused to sulfite reductase", "notes": "also called GFP S11 214-230; wild type GFP S11"}},
  "molecular_target": "T1, folding reporter GFP 1-10 (Aequorea victoria, UniProt P42212 1-214 = GFP)",
  "T1 construct": "range 1-214; also called folding reporter GFP fragment 1-214; FR",
  "T1 sequence (P42212 other isoform, or with tags, fused parts or gaps limits assumed)": "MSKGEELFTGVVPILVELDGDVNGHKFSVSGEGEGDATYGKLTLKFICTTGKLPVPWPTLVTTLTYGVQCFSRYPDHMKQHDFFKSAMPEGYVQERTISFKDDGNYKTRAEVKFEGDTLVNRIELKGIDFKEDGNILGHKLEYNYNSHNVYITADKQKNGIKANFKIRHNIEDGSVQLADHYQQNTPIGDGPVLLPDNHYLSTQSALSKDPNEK",
  "assay": "co-expression from compatible pET vectors in E. coli, colony fluorescence (split GFP complementation)",
  "note": "No end group written: not given here.",
  "data": [
    {"binder": "B1", "values": [
      {"measurement": "binding result", "value": "no binding"}
    ]}
  ]
}
